Laboratory results taken from the nanobody polyreactivity screen of Harvey et al. (2022).

Experiment: yeast display, Sf9 membrane polyspecificity reagent, FACS + sequencing; frameworks hold sequencing errors
Summary of the method: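 Using colony PCR, genes from sorted yeast display clones were amplified, then sequenced on MiSeq at 2 × 250 and filtered by CDR length. The clones had been stained with 10% biotinylated, detergent-solubilized Sf9 membrane reagent for 1 hour at 4 °C and sorted by FACS into low and high (top ~1%) gates on anti-HA and streptavidin fluorescence. Polyreactivity labels come from the gate of origin.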
With “QVQLVESGGGLVQAGGSLRLSCAASGFIFSGYAMGWSRQAPGKERELVAAITWSGSNTFYADSVKGRFTISRDNAKNTVYLQMNSLKPEDTAVYYCNAVSKYKRSDYYYWGQGTQVTVSS” the “polyreactivity (PSR sort gate)” value was “high polyreactivity”. In the case of “QVQLVESGGGLDQAGGSLRLSCAASGIIFRSNAMGWYRQAPGKERELVAAITGRGTRTYYADSVKGRFTISRDNAKNTVYLQMNSLKPEDTAVDYCNTGQTRGMGYWGQGTQVTVSS”, the “polyreactivity (PSR sort gate)” value is reported as “high polyreactivity”. For “QVQLVESGGGLVQAGGSLRLSCAASGRTFTRYAMGWYRQAPGKERELVAAISLSSGRTYYADSVKGRFTISRDNAKNTVYLQMNSLKPEDTAVYYCAVRSYVVPGKGFGYWGQGTQVTVSS”, the “polyreactivity (PSR sort gate)” value was “high polyreactivity”. For “QVQLVESGGGLVQAGGSLRLSCAASGGTFYYYAMGWYRQPPGKERELGAAITGTGGRTYYADSVKGRFTISRDNAKNTVSLQMNSLKPEDTAVYYCATDALYGSGYDYWGQGTQVTVSS”, the “polyreactivity (PSR sort gate)” value was “high polyreactivity”. For “QVQLVESGGGLFKAGGSLRLRCAPSGSIFDYNTMAWYRQAPGKERQFVAAISSARGGTSYADSVKGRFTISRDNAKNTVYLQMNSLKPEDTAVYYCAALIILTPYQRQYWKYGAYFYWGQGTQVTVSS”, the “polyreactivity (PSR sort gate)” value was “high polyreactivity”. In the case of “QVQLVESGGGLVQAGGSLRLSCAASGRIFRGNAMGWYRQAPGKERELVAAILTGVSTYYADSVKGRFTISRDNAKNTVYLQMNSLNPEDTAVYYCADERPSRRSVYEYWGQCTQVTVSS”, the “polyreactivity (PSR sort gate)” value is reported as “low polyreactivity”. With “QDQLVESCGGLVQAGGSHRLTCAASGGTSWIYAMGWYRQAPRKARELVAVITWSGGSTYYADSVKGRFTISRDTAKNTVYLQMNSLKPEDTAVYYCATDYTGKWKDHYYYWGQGTQVTVSS” the “polyreactivity (PSR sort gate)” value was “low polyreactivity”. With “QVQLVESGGVLVQAGGSLRLSCAASGITFPDYDMGWYIHATGKERELVAAITYRSGSTYYADSVKGRFTISRDNAKNTVFLQMNCLKREDTAVYYCAADWRTKGYDSLGQGTQVTVSS” the “polyreactivity (PSR sort gate)” value was “high polyreactivity”. In the case of “QVQLVESGGGLVQAGGSLRLSCAASGRIFPRYGMGWYRQAPGKERELVADITSSGSTYADSVKGRFTISRDNAKNTVYLQMNSLKPEDTAVYYCNALYRRLSYSWRYRQLYDYWGQGTQVTVSS”, the “polyreactivity (PSR sort gate)” value is reported as “high polyreactivity”. For “QVQLVESGGGLVQAGGSLRLSCAASGRTFGVKAMGWYRQAPGKERELVAAITSGGTTNYADSVKGRFTISRDNAKNTFYLQMNSLKPEDTAVYYCAARSYYPRYGYWGQGTQVTVSS”, the “polyreactivity (PSR sort gate)” value was “high polyreactivity”. With “QVQHVESGGGLVQAGGSLRLSCAASGTTFVLYAMGWYIQAPGKERELVAAITWSGGITYYADSVKGRFTISRDNAKNTVYLQMNSLKPEDTAVYYCNAEQKQYEKSYDYWGQGSQVTVSS” the “polyreactivity (PSR sort gate)” value was “low polyreactivity”. For “QVQLVESGGGLVQAGGSLRLSCAASGIYYNAMGWYRHAPGKERELVAAITTGDRTNYADSVKGRFTISRDNAKNTVYLQMNSLKPEDTAVYYCNAVVERLSSTARDFAYDYWGQGTQVTVSS”, the “polyreactivity (PSR sort gate)” value was “low polyreactivity”. With “QVQLVESGGGLVQAGGSLRLSCAASGSIFRQYAMGWYRQAPGKERELVATISRSGGSTYYADSVKGRFTISRDNAKNTVYLQMNSLKPEDTAVYYCAASRYKKSYREWWVGSWGQGTQVTVSS” the “polyreactivity (PSR sort gate)” value was “high polyreactivity”. For “QVQLVESGGGLVQAGGSLRLSCAASGSTFLYYAMGWYRQEPGKERELVAAINWNGGSTYYADSVKGRFTISRDNAKNTVYLQMNSLKPEDTAVYYCNAYGISPYEYYYWGQGTQVTVSS”, the “polyreactivity (PSR sort gate)” value was “low polyreactivity”. In the case of “QVQLVESGGGLVQAGGSLRLSCAASGRTFIPYAMGWYRQAPGKERELVAAISYSGGSTYYADSVKGRFTISRDNAKNTVYLQMYSLKPEDTAVYYCNAYYGSYYYDYNYWGQGTQVSVSS”, the “polyreactivity (PSR sort gate)” value is reported as “high polyreactivity”. For “QFQLEESGGGLVQAGGSLRLSCDASGIIINYYAMGWYRQAPGKERELVAAIRISDTTYYADSVKGRFTISRDNAKNTVYLQMNSLKPEDTAVYYCNTLYYYYYGEVYVRDYDYWGQGTHVTVSS”, the “polyreactivity (PSR sort gate)” value was “low polyreactivity”. With “QVQLVESGGGIVQAGGSLRLSCAASGRTFKVNAMGWYIQAPGKEREFVAAITWNSGSSTYYADSVKGRFTISRDNAKNTVYLQMNSLKPEDTAVYYCAARSAGRYWNYYWGQGTQVTVSS” the “polyreactivity (PSR sort gate)” value was “high polyreactivity”.
